Source: PMC4143144

Biological target: amino-terminal hexahistidine-tagged EttA-EQ2 (E. coli) (UniProt P0A9W3)
Assay: pull-down

Work on “E. coli 70S ribosome (from UniProt P0A7L0 1-234; P62399 1-179; P0A7N9 1-55; P02359 1-179; P0A7R1 1-149) (complex)” yielded a stoichiometry N (EttA-EQ2:70S ribosome) of 1.
